Source: patent US7772181B2, “Personal care compositions comprising modified variant Bowman Birk Protease Inhibitors” (Danisco US Inc., priority 2008, dated 2010)
One block for each molecule: values may come before it.

Legend:
[1] = biological target: T1, bovine pancreatic trypsin (Bos taurus, UniProt P00760); test: Shake flask screen: trypsin inhibition after growth, 2-mercaptoethanol activation and acid/heat treatment; format: biochemical; conditions: when not activated
T1 construct: purchased Worthington (Worthington Biochemical Corp.)
T1 sequence (P00760 24-246): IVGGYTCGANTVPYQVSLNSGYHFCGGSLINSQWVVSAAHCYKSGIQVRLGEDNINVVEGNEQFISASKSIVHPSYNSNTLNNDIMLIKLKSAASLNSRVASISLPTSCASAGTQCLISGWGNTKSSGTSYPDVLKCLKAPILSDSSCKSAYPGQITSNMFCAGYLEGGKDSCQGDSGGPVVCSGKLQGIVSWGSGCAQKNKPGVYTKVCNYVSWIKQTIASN

VegF = biological target: T2, VegF (UniProt P15692); test: BioVeris electrochemiluminescence competition binding assay, VEGF; conditions: for competition with Anti-VegF antibody for binding to VegF (ECL signal): labeled Anti-VegF antibody, biotinylated VegF
T2 sequence (P15692 207-395): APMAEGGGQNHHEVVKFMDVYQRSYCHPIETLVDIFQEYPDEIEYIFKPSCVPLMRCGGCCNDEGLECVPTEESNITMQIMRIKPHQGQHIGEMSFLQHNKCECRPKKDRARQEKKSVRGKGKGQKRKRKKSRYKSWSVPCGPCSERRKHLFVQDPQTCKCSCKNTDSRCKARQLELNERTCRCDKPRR
Experimental: Briefly, after cleavage, the pH of the cleaved sample was adjusted to 5.5, the sample was then loaded onto the column (equilibrated with 25 mM MES pH 5.5). The free 2BBIck81 was washed through the column using 25 mM sodium acetate pH 5.0 while the BCE103 catalytic core remained bound to the resin. The 2BBIck81 fraction was concentrated by ultrafiltration and analyzed using an electrochemiluminescence (ECL) based binding assay (BioVeris). The Anti-VegF antibody (Santa Cruz) and VegF (PeproTech) were labeled with the electrochemiluminescent dye and biotin, respectively, as described by the manufacturer (BioVeris). All materials were in Dulbecco's PBS (Mediatech) supplemented with 0.1% TWEEN®-80. An initial dilution series of Anti-VegF antibody (125, 250 and 500 ng/ml) and VegF (100, 150, 200 and 250 ng/ml) were tested in the binding assay to determine the concentrations of each that would give a robust ECL signal.
For testing 2BBIck81 binding, 50 μL of 500 ng/ml ECL labeled Anti-VegF antibody, 50 μL of 250 ng/ml biotinylated VegF and 100 μL 2BBIck81 (series of 12.5, 15, 31.25, 62.5, 125, 250 or 500 ng/ml) were incubated at room temperature for 2 h with shaking. Then, 50 μL of 0.2 mg/ml streptavidin coated beads were added and the reaction was incubated at room temperature for 30 minutes. The ECL signal was measured using a BioVeris M8/384 Analyzer as described by the manufacturer (BioVeris).
(§1) The resulting vectors were used to transform B. subtilis BG6006 host cells. Cultures were grown in 500 ml of MBD medium and the BBI species were purified essentially as described above and by Vogtentanz et al., 2007 (Protein Expr Purif 55:40-52 [2007]). BioVeris binding assays were performed essentially as outlined in Example 5 and by the manufacturer. Binding of the modified variant BBIs to their respective target proteins was measured using a BioVeris® binding assay, which is a competition assay that determines the binding of the modified variant BBIs to its target protein (e.g. VEGF, FGF5, TGFβ and TNFα) in the presence or absence of a labeled competitor. The competitor can be a labeled monoclonal antibody raised against the target protein or a labeled native receptor of the target protein. The electrochemiluminescent binding assays were performed essentially as described in Example 5. The apparent IC50s were determined from binding data by determining the concentration of the BBI species needed to reduce the BioVeris signal by one half. BBI scaffolds without the target binding peptide in the chymotrypsin inhibitory loop were used as negative controls.

[2] = biological target: T1, bovine pancreatic trypsin; test: Trypsin inhibitory assay (BBI activity); format: biochemical
Experimental: (§2) Trypsin inhibitory assays were performed in Assay Buffer to determine the BBI activity. Specifically, a standard curve was generated by making eleven 1:1 serial dilutions (100 μL BBI+100 μL Assay Buffer) of a 2 μg/mL standard BBI solution. The BBI standard was purified from a 1 mg/ml Trypsin-Chymotrypsin Inhibitor (Sigma Cat. #T-9777) solution in 20 mM MES pH 6.0 using a hydrophobic interaction column (POROS HP2, Phenyl column, Applied Biosystems). The column was equilibrated with 20 mM MES pH 6.0, loaded with 5 mg of the inhibitor, washed with the equilibration buffer, and then the BBI was eluted with water. Unknown BBI samples to be tested in the inhibitory assay were diluted as necessary, so that two or more data points would fall within the standard curve (usually 1:10, 1:100, 1:200, 1:1000, 1:2000 sample dilutions were tested and then the dilutions fine tuned if necessary). […] After the incubation, 100 μL of the 0.5 mg/ml trypsin substrate (diluted in Assay Buffer from a 100 mg/ml solution in DMSO), Suc-AAPR-pNA (succinyl-Ala-Ala-Pro-Arg-para-nitroanilide, Bachem), was added, mixed and the OD (A405) was monitored for 15 min, with 1 time point recorded every 12 sec using a Spectra Max 250 (Molecular Devices). […] The BBI concentration of the unknown samples was calculated from the standard curve. Alternatively, the BBI activity was measured using the same protocol but by determining bovine pancreatic chymotrypsin (Worthington) inhibition (chymotrypsin was used at the same concentration as trypsin and chymotrypsin activity was measured by adding 100 μL of a 0.4 mg/ml chymotrypsin substrate, succinyl-Ala-Ala-Pro-Phe-para-nitroanilide, Bachem).
The relative concentration of active control and modified BBIt-AV's was determined by a trypsin inhibitory assay using purified sBBI as a standard as described above. For some samples, the active BBI concentration was measured by residual trypsin activity according to the method described by Flecker (Flecker, P. FEBS Lett. 252:153-157 [1989]; Vogtentanz et al. supra). […]

human CD4+ T cells = test: i-mune assay for peptide T-cell epitopes; format: cell-based
Experimental: The i-mune® assay was performed for the identification of peptide T-cell epitopes in wild type BBI using naïve human T-cells, as described in WO9953038A2 and Stickler et al, 2000 (J. Immunotherapy, 23(6), 654-660, [2000]). Peptides for use in the assay were prepared based on the wild-type BBI amino acid sequence […] CYEPCKPSEDDKEN (SEQ ID NO:13). From the full length amino acid sequence of BBI, 15mer peptides were synthetically prepared by Mimotopes US West (San Diego, Calif.). Each 15mer peptide sequence was designed to overlap with the previous and subsequent 15mer, except for three residues. The 20 peptides used to screen for T-cell epitopes, corresponding to wild type BBI sequence, were:
Briefly, human CD4+ T cells were co-cultured with dendritic cells and peptide for the intact peptide set, using the peptides shown in Figure Y. Cytokine responses were averaged within each experiment as described in Strickler et al, 2000 and a response to a peptide was tabulated as positive if the stimulation index (SI) was greater than 2.95 (FIG. 18A). SI values for each donor were compiled for each peptide set and the percent of donors responsive to each peptide is shown in FIG. 18B. The percent background response, 2.89%, was determined as the average percent responders over all the peptides in the set. The standard deviation for this dataset was 2.21%. Major epitopes are defined as having a percentage response that is 3-fold or more than the background.

TGFβ = TGFβ (Homo sapiens, UniProt P01137); test: BioVeris competition binding assay, TGFβ; conditions: Target protein TGFβ1, concentration reducing BioVeris signal by one half, read-out: BioVeris Binding (apparent IC50)
TGFβ, sequence (P01137 279-390): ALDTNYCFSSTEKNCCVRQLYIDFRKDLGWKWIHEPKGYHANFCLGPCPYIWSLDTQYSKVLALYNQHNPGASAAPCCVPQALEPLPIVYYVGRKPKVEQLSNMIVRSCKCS
Experimental: as §1

[3] = biological target: T3, bovine pancreatic chymotrypsin (Bos taurus, UniProt P00766); test: Chymotrypsin inhibition assay (BBI activity); format: biochemical; conditions: BCE103 fusion protein in cell free broth
T3 construct: purchased Worthington
Experimental: as §2, with “water.” for “water. Unknown BBI samples to be tested in the inhibitory assay were diluted as necessary, so that two or more data points would fall within the standard curve (usually 1:10, 1:100, 1:200, 1:1000, 1:2000 sample dilutions were tested and then the dilutions fine tuned if necessary).”

B1: D1C: BBIt-AV (SEQ ID NO:187) with single substitution D1C (protein)
chain: CDESSKPCCDQCACTKSNPPQCRCSDMRLNSCHSACKSCACYNLYGWTCFCVDITDFCYEPCKPSE
modifications: synthetic BBIt-AV sequence
BBIt-AV yield after acid/heat treatment relative to unmodified BBIt-AV [1]: improved yields after acid/heat treatment

competition with Anti-VegF antibody for binding to VegF (ECL signal) (VegF): shown to compete
activity of the BBI (trypsin inhibition) relative to fusions to the wild-type BBI ([2]; BCE103 fusion protein in cell free broth): about two fold less
B2: BBI-AV: BBI with VEGF binding peptide CK37281 replacing the chymotrypsin inhibitory loop, SEQ ID NO:186 (protein)
chain: DDESSKPCCDQCACTKSNPPQCRCSDMRLNSCHSACKSCACYNLYGWTCFCVDITDFCYEPCKPSEDDKEN
modifications: synthetic BBI-AV sequence
competition for VegF binding compared with synthesized CK37281 peptide (VegF): better than the synthesized CK37281 peptide itself
competition with Anti-VegF antibody for binding to VegF (ECL signal) (VegF; listed as 2BBIck81): competed with the Anti-VegF antibody for binding to VegF at micromolar concentrations

activated trypsin inhibitory activity, % of expected based on BCE103 cellulase concentration ([2]; 2 mM BME and 0.2 mM GSSG, about 24 h, room temperature): 70-100%
activity of the BBI after growth versus expected from BCE103 cellulase activity ([2]; cell free supernatants, trypsin or chymotrypsin inhibition, before activation): 5-20 times lower
B3: BBI: soybean Bowman-Birk protease inhibitor from Glycine max, major mature form, SEQ ID NO:13 (protein)
chain: DDESSKPCCDQCACTKSNPPQCRCSDMRLNSCHSACKSCICALSYPAQCFCVDITDFCYEPCKPSEDDKEN
modifications: Glycine max
immunogenicity potential in humans (human CD4+ T cells): low immunogenicity potential
percent background response (average percent responders over all the peptides) (human CD4+ T cells; 20 overlapping 15mer peptides, 71 donors): 2.89%
peptide T-cell epitope responses (human CD4+ T cells; stimulation index > 2.95 positive, major epitope 3-fold or more over background): none of the peptide responses were significant

IC50 (TGFβ): 10 to 50 µM
B4: PEN3-Q-BBIt-TGF-A40L-F50N (SEQ ID NO: 677) (protein)
chain: PSESSKPCCDQCACTKSIPPQCRCTDVRLNSCHSACSSCACYNLYGWTCVCVDMKDFCYEPCK
modifications: synthetic BBdb-AV sequence

activity of the BBI (chymotrypsin inhibition) relative to fusions to the wild-type BBI [3]: about two fold less
B5: 1 BBIck81: BBI with the CK37281 peptide in the trypsin loop (protein)
chain: DDESSKPCCDQCACYNLYGWTCRCSDMRLNSCHSACKSCICALSYPAQCFCVDITDFCYEPCKPSEDDKEN
competition with Anti-VegF antibody for binding to VegF (ECL signal) (VegF): also competed with the Anti-VegF antibody
